Measured values: the Immune Epitope Database (IEDB)

Columns and labels:
HLA-B*08:01 [1] = assay: IEDB peptide-MHC binding, purified MHC/competitive/fluorescence; filed as Kd, often an IC50 or EC50 that approximates it; ≥ and ≤ were set here for values at or beyond the usual limits of such assays; settings: source organism: Influenza A virus (A/Osaka/930/88(H1N1))
HLA-A*02:01 [2] = assay: IEDB peptide-MHC binding, purified MHC/competitive/fluorescence; ≥ and ≤ were set here for values at or beyond the usual limits of such assays
HLA-A*24:02 [3] = assay: as above; settings: source organism: Zaire ebolavirus
HLA-B*15:01 [4] = assay: as above
HLA-A*02:03 = assay: IEDB peptide-MHC binding, purified MHC/direct/fluorescence; filed as Kd, often an IC50 or EC50 that approximates it; ≥ and ≤ were set here for values at or beyond the usual limits of such assays; settings: source organism: Zaire ebolavirus
HLA-A*02:11 = assay: as above; settings: source organism: Zaire ebolavirus
HLA-A*02:12 = assay: as above; settings: source organism: Zaire ebolavirus
HLA-A*02:16 = assay: as above; settings: source organism: Zaire ebolavirus
HLA-A*02:19 = assay: as above; settings: source organism: Zaire ebolavirus
HLA-A*03:01 [5] = assay: as above
HLA-A*24:03 = assay: as above; settings: source organism: Zaire ebolavirus
HLA-A*68:02 = assay: as above; settings: source organism: Zaire ebolavirus
HLA-B*15:01 [6] = assay: as above
HLA-B*58:01 = assay: as above
HLA-A*02:01 [7] = assay: IEDB peptide-MHC binding, purified MHC/competitive/fluorescence; filed as Kd, often an IC50 or EC50 that approximates it; ≥ and ≤ were set here for values at or beyond the usual limits of such assays; settings: source organism: Zaire ebolavirus
HLA-A*26:01 = assay: as above; settings: source organism: Zaire ebolavirus
HLA-A*69:01 = assay: as above; settings: source organism: Zaire ebolavirus
HLA-B*15:17 = assay: as above; settings: source organism: Zaire ebolavirus
HLA-B*18:01 = assay: as above; settings: source organism: Zaire ebolavirus
HLA-B*27:03 = assay: as above; settings: source organism: Zaire ebolavirus
HLA-B*39:01 = assay: as above; settings: source organism: Zaire ebolavirus
HLA-B*46:01 [8] = assay: as above; settings: source organism: Zaire ebolavirus
HLA-B*51:01 = assay: as above; settings: source organism: Zaire ebolavirus
HLA-B*57:01 = assay: as above; settings: source organism: Zaire ebolavirus
HLA-A*03:01 [9] = assay: IEDB peptide-MHC binding, purified MHC/competitive/fluorescence; ≥ and ≤ were set here for values at or beyond the usual limits of such assays
HLA-A*11:01 [10] = assay: as above
HLA-B*07:02 [11] = assay: as above; settings: source organism: Zaire ebolavirus
HLA-B*08:01 [12] = assay: as above; settings: source organism: Zaire ebolavirus
HLA-A*01:01 [13] = assay: as above; settings: source organism: Sudan ebolavirus
HLA-A*01:01 [14] = assay: IEDB peptide-MHC binding, purified MHC/direct/fluorescence; filed as Kd, often an IC50 or EC50 that approximates it; ≥ and ≤ were set here for values at or beyond the usual limits of such assays; settings: source organism: Escherichia coli O157:H7
HLA-A*02:01 [15] = assay: as above; settings: source organism: Escherichia coli O157:H7
HLA-A*11:01 [16] = assay: as above; settings: source organism: Escherichia coli O157:H7
HLA-A*24:02 [17] = assay: as above; settings: source organism: Escherichia coli O157:H7
HLA-B*07:02 [18] = assay: as above; settings: source organism: Escherichia coli O157:H7
HLA-B*27:05 = assay: as above; settings: source organism: Escherichia coli O157:H7
HLA-B*40:01 = assay: as above; settings: source organism: Escherichia coli O157:H7
HLA-B*44:02 = assay: as above; settings: source organism: Escherichia coli O157:H7
HLA-B*46:01 [19] = assay: as above; settings: source organism: Escherichia coli O157:H7
[20] = source organism: Zaire ebolavirus
[21] = source organism: Vaccinia virus Copenhagen
[22] = source organism: Sudan ebolavirus
[23] = source organism: Escherichia coli O157:H7

Question: With KLERRMENL as the sequence, how does the Kd (HLA-B*08:01 [1]) read?
Answer: The Kd was ≥ 20 µM.

Question: GLIQYPTAW was tested. Which IC50 (HLA-A*02:01 [2]; [20]) did it give?
Answer: The IC50 was 3.1 µM.

Question: And the IC50 (HLA-A*24:02 [3])?
Answer: The IC50 was 13.2 µM.

Question: What about the IC50 (HLA-B*15:01 [4]; [20]) of the same sequence?
Answer: The IC50 was ≥ 109 µM.

Question: And the Kd (HLA-A*02:03)?
Answer: Its Kd is ≥ 20 µM.

Question: And the Kd (HLA-A*02:11)?
Answer: The Kd was ≥ 20 µM.

Question: And the Kd (HLA-A*02:12)?
Answer: The Kd was ≥ 20 µM.

Question: What about the Kd (HLA-A*02:16) of the same sequence?
Answer: The Kd was ≥ 20 µM.

Question: And the Kd (HLA-A*02:19)?
Answer: The Kd was ≥ 20 µM.

Question: And the Kd (HLA-A*03:01 [5]; [20])?
Answer: Its Kd is ≥ 20 µM.

Question: What about the Kd (HLA-A*24:03) of the same sequence?
Answer: Its Kd is ≥ 20 µM.

Question: And the Kd (HLA-A*68:02)?
Answer: Its Kd is ≥ 20 µM.

Question: What about the Kd (HLA-B*15:01 [6]; [20]) of the same sequence?
Answer: The Kd was 2.2 µM.

Question: What about the Kd (HLA-B*58:01; [20]) of the same sequence?
Answer: Its Kd is 0.5 µM.

Question: And the Kd (HLA-A*02:01 [7])?
Answer: The Kd was ≥ 20 µM.

Question: And the Kd (HLA-A*26:01)?
Answer: The Kd was ≥ 20 µM.

Question: And the Kd (HLA-A*69:01)?
Answer: Its Kd is ≥ 20 µM.

Question: And the Kd (HLA-B*15:17)?
Answer: The Kd was ≥ 20 µM.

Question: And the Kd (HLA-B*18:01)?
Answer: Its Kd is ≥ 20 µM.

Question: And the Kd (HLA-B*27:03)?
Answer: The Kd was ≥ 20 µM.

Question: What about the Kd (HLA-B*39:01) of the same sequence?
Answer: Its Kd is ≥ 20 µM.

Question: And the Kd (HLA-B*46:01 [8])?
Answer: Its Kd is ≥ 20 µM.

Question: And the Kd (HLA-B*51:01)?
Answer: Its Kd is ≥ 20 µM.

Question: And the Kd (HLA-B*57:01)?
Answer: The Kd was ≥ 20 µM.

Question: What does the source list for AIITPIVFY?
Answer: IC50 (HLA-A*02:01 [2]; [21]): ≥ 122 µM; IC50 (HLA-A*03:01 [9]; [21]): ≥ 153 µM; IC50 (HLA-A*11:01 [10]; [21]): 0.941 µM; IC50 (HLA-B*15:01 [4]; [21]): 6.37 µM

Question: What does the source list for STSPRMLTP?
Answer: IC50 (HLA-A*11:01 [10]; [20]): 44.1 µM; IC50 (HLA-A*24:02 [3]): 69.9 µM; IC50 (HLA-B*07:02 [11]): ≥ 168 µM

Question: Which IC50 (HLA-A*02:01 [2]; [20]) does the source give for LFQRTFSIP here?
Answer: The IC50 was ≥ 72.9 µM.

Question: And the IC50 (HLA-A*24:02 [3])?
Answer: Its IC50 is 1.04 µM.

Question: What about the IC50 (HLA-B*08:01 [12]) of the same sequence?
Answer: Its IC50 is ≥ 270 µM.

Question: What does the source list for VIFRLMRTN?
Answer: IC50 (HLA-A*02:01 [2]; [20]): 42.7 µM; IC50 (HLA-A*03:01 [9]; [20]): 7.47 µM; IC50 (HLA-A*11:01 [10]; [20]): ≥ 90.6 µM; IC50 (HLA-A*24:02 [3]): ≥ 150 µM; IC50 (HLA-B*15:01 [4]; [20]): ≥ 175 µM

Question: Which IC50 (HLA-A*01:01 [13]) does the source give for ISDRATRKY here?
Answer: Its IC50 is 1.89 µM.

Question: What about the IC50 (HLA-A*03:01 [9]; [22]) of the same sequence?
Answer: The IC50 was 38.6 µM.

Question: What about the IC50 (HLA-A*11:01 [10]; [22]) of the same sequence?
Answer: The IC50 was 18.8 µM.

Question: And the IC50 (HLA-B*15:01 [4]; [22])?
Answer: The IC50 was 57.6 µM.

Question: What does the source list for PLKVKDIPF?
Answer: Kd (HLA-A*01:01 [14]): ≥ 20 µM; Kd (HLA-A*02:01 [15]): ≥ 20 µM; Kd (HLA-A*03:01 [5]; [23]): ≥ 20 µM; Kd (HLA-A*11:01 [16]): ≥ 20 µM; Kd (HLA-A*24:02 [17]): ≥ 20 µM; Kd (HLA-B*07:02 [18]): ≥ 20 µM; Kd (HLA-B*15:01 [6]; [23]): 0.196 µM; Kd (HLA-B*27:05): ≥ 20 µM; Kd (HLA-B*40:01): ≥ 20 µM; Kd (HLA-B*44:02): ≥ 20 µM; Kd (HLA-B*46:01 [19]): ≥ 20 µM; Kd (HLA-B*58:01; [23]): ≥ 20 µM
